Sequences and labels used below:
B1: CLM-6 (protein, UniProt Q08708 21-224, looked up)
CMRF35-like molecule 6: GYFPLSHPMTVAGPVGGSLSVQCRYEKEHRTLNKFWCRPPQILRCDKIVETKGSAGKRNGRVSIRDSPANLSFTVTLENLTEEDAGTYWCGVDTPWLRDFHDPIVEVEVSVFPAGTTTASSPQSSMGTSGPPTKLPVHTWPSVTRKDSPEPSPHPGSLFSNVRFLLLVLLELPLLLSMLGAVLWVNRPQRSSRSRQNWPKGENQ
B2: CKAP4 (protein, UniProt Q07065 1-602, looked up)
Cytoskeleton-associated …: MPSAKQRGSKGGHGAASPSEKGAHPSGGADDVAKKPPPAPQQPPPPPAPHPQQHPQQHPQNQAHGKGGHRGGGGGGGKSSSSSSASAAAAAAAASSSASCSRRLGRALNFLFYLALVAAAAFSGWCVHHVLEEVQQVRRSHQDFSRQREELGQGLQGVEQKVQSLQATFGTFESILRSSQHKQDLTEKAVKQGESEVSRISEVLQKLQNEILKDLSDGIHVVKDARERDFTSLENTVEERLTELTKSINDNIAIFTEVQKRSQKEINDMKAKVASLEESEGNKQDLKALKEAVKEIQTSAKSREWDMEALRSTLQTMESDIYTEVRELVSLKQEQQAFKEAADTERLALQALTEKLLRSEESVSRLPEEIRRLEEELRQLKSDSHGPKEDGGFRHSEAFEALQQKSQGLDSRLQHVEDGVLSMQVASARQTESLESLLSKSQEHEQRLAALQGRLEGLGSSEADQDGLASTVRSLGETQLVLYGDVEELKRSVGELPSTVESLQKVQEQVHTLLSQDQAQAARLPPQDFLDRLSSLDNLKASVSQVEADLKMLRTAVDSLVAYSVKIETNENNLESAKGLLDDLRNDLDRLFVKVEKIHEKV
B3: SPON2 (protein, UniProt Q9BUD6 27-331, looked up)
Spondin-2: QPLGGESICSARALAKYSITFTGKWSQTAFPKQYPLFRPPAQWSSLLGAAHSSDYSMWRKNQYVSNGLRDFAERGEAWALMKEIEAAGEALQSVHAVFSAPAVPSGTGQTSAELEVQRRHSLVSFVVRIVPSPDWFVGVDSLDLCDGDRWREQAALDLYPYDAGTDSGFTFSSPNFATIPQDTVTEITSSSPSHPANSFYYPRLKALPPIARVTLVRLRQSPRAFIPPAPVLPSRDNEIVDSASVPETPLDCEVSLWSSWGLCGGHCGRLGTKSRTRYVRVQPANNGSPCPELEEEAECVPDNCV
B4: CLEC10A (protein, UniProt Q8IUN9 1-316, looked up)
C-type lectin domain family …: MTRTYENFQYLENKVKVQGFKNGPLPLQSLLQRLCSGPCHLLLSLGLGLLLLVIICVVGFQNSKFQRDLVTLRTDFSNFTSNTVAEIQALTSQGSSLEETIASLKAEVEGFKQERQAGVSELQEHTTQKAHLGHCPHCPSVCVPVHSEMLLRVQQLVQDLKKLTCQVATLNNNASTEGTCCPVNWVEHQDSCYWFSHSGMSWAEAEKYCQLKNAHLVVINSREEQNFVQKYLGSAYTWMGLSDPEGAWKWVDGTDYATGFQNWKPGQPDDWQGHGLGGGEDCAHFHPDGRWNDDVCQRPYHWVCEAGLGQTSQESH
B5: ATG4A (protein, UniProt Q8WYN0 1-398, looked up)
Cysteine protease ATG4A: MESVLSKYEDQITIFTDYLEEYPDTDELVWILGKQHLLKTEKSKLLSDISARLWFTYRRKFSPIGGTGPSSDAGWGCMLRCGQMMLAQALICRHLGRDWSWEKQKEQPKEYQRILQCFLDRKDCCYSIHQMAQMGVGEGKSIGEWFGPNTVAQVLKKLALFDEWNSLAVYVSMDNTVVIEDIKKMCRVLPLSADTAGDRPPDSLTASNQSKGTSAYCSAWKPLLLIVPLRLGINQINPVYVDAFKECFKMPQSLGALGGKPNNAYYFIGFLGDELIFLDPHTTQTFVDTEENGTVNDQTFHCLQSPQRMNILNLDPSVALGFFCKEEKDFDNWCSLVQKEILKENLRMFELVQKHPSHWPPFVPPAKPEVTTTGAEFIDSTEQLEEFDLEEDFEILSV
B6: IL-6RA (protein, UniProt P08887 20-468, looked up)
Interleukin-6 receptor …: LAPRRCPAQEVARGVLTSLPGDSVTLTCPGVEPEDNATVHWVLRKPAAGSHPSRWAGMGRRLLLRSVQLHDSGNYSCYRAGRPAGTVHLLVDVPPEEPQLSCFRKSPLSNVVCEWGPRSTPSLTTKAVLLVRKFQNSPAEDFQEPCQYSQESQKFSCQLAVPEGDSSFYIVSMCVASSVGSKFSKTQTFQGCGILQPDPPANITVTAVARNPRWLSVTWQDPHSWNSSFYRLRFELRYRAERSKTFTTWMVKDLQHHCVIHDAWSGLRHVVQLRAQEEFGQGEWSEWSPEAMGTPWTESRSPPAENEVSTPMQALTTNKDDDNILFRDSANATSLPVQDSSSVPLPTFLVAGGSLAFGTLLCIAIVLRFKKTWKLRALKEGKTSMHPPYSLGQLVPERPRPTPVLVPLISPPVSPSSLGSDNTSSHNRPDARDPRSPYDISNTDYFFPR
B7: C1QTNF1 (protein, UniProt Q9BXJ1 26-281, looked up)
Complement C1q tumor necrosis …: RVPHVQGEQQEWEGTEELPSPPDHAERAEEQHEKYRPSQDQGLPASRCLRCCDPGTSMYPATAVPQINITILKGEKGDRGDRGLQGKYGKTGSAGARGHTGPKGQKGSMGAPGERCKSHYAAFSVGRKKPMHSNHYYQTVIFDTEFVNLYDHFNMFTGKFYCYVPGLYFFSLNVHTWNQKETYLHIMKNEEEVVILFAQVGDRSIMQSQSLMLELREQDQVWVRLYKGERENAIFSEELDTYITFSGYLVKHATEP
B8: PGLYRP1 (protein, UniProt O75594 22-196, looked up)
Peptidoglycan recognition …: QETEDPACCSPIVPRNEWKALASECAQHLSLPLRYVVVSHTAGSSCNTPASCQQQARNVQHYHMKTLGWCDVGYNFLIGEDGLVYEGRGWNFTGAHSGHLWNPMSIGISFMGNYMDRVPTPQAIRAAQGLLACGVAQGALRSNYVLKGHRDVQRTLSPGNQLYHLIQNWPHYRSP
B9: PCDH17 (protein, UniProt O14917 18-1159, looked up)
Protocadherin-17: LKNLNYSVPEEQGAGTVIGNIGRDARLQPGLPPAERGGGGRSKSGSYRVLENSAPHLLDVDADSGLLYTKQRIDRESLCRHNAKCQLSLEVFANDKEICMIKVEIQDINDNAPSFSSDQIEMDISENAAPGTRFPLTSAHDPDAGENGLRTYLLTRDDHGLFGLDVKSRGDGTKFPELVIQKALDREQQNHHTLVLTALDGGEPPRSATVQINVKVIDSNDNSPVFEAPSYLVELPENAPLGTVVIDLNATDADEGPNGEVLYSFSSYVPDRVRELFSIDPKTGLIRVKGNLDYEENGMLEIDVQARDLGPNPIPAHCKVTVKLIDRNDNAPSIGFVSVRQGALSEAAPPGTVIALVRVTDRDSGKNGQLQCRVLGGGGTGGGGGLGGPGGSVPFKLEENYDNFYTVVTDRPLDRETQDEYNVTIVARDGGSPPLNSTKSFAIKILDENDNPPRFTKGLYVLQVHENNIPGEYLGSVLAQDPDLGQNGTVSYSILPSHIGDVSIYTYVSVNPTNGAIYALRSFNFEQTKAFEFKVLAKDSGAPAHLESNATVRVTVLDVNDNAPVIVLPTLQNDTAELQVPRNAGLGYLVSTVRALDSDFGESGRLTYEIVDGNDDHLFEIDPSSGEIRTLHPFWEDVTPVVELVVKVTDHGKPTLSAVAKLIIRSVSGSLPEGVPRVNGEQHHWDMSLPLIVTLSTISIILLAAMITIAVKCKRENKEIRTYNCRIAEYSHPQLGGGKGKKKKINKNDIMLVQSEVEERNAMNVMNVVSSPSLATSPMYFDYQTRLPLSSPRSEVMYLKPASNNLTVPQGHAGCHTSFTGQGTNASETPATRMSIIQTDNFPAEPNYMGSRQQFVQSSSTFKDPERASLRDSGHGDSDQADSDQDTNKGSCCDMSVREALKMKTTSTKSQPLEQEPEECVNCTDECRVLGHSDRCWMPQFPAANQAENADYRTNLFVPTVEANVETETYETVNPTGKKTFCTFGKDKREHTILIANVKPYLKAKRALSPLLQEVPSASSSPTKACIEPCTSTKGSLDGCEAKPGALAEASSQYLPTDSQYLSPSKQPRDPPFMASDQMARVFADVHSRASRDSSEMGAVLEQLDHPNRDLGRESVDAEEVVREIDKLLQDCRGNDPVAVRK

The subject of the experiment is plasma proteins. The experiment can be described thus: Plasma proteins modulated between baseline and day 28 in responders (CR, VGPR, PR; n = 19), Example 6 (Table 13). The following applies: plasma protein (OLINK NPX); responders (CR, VGPR, PR; n = 19); itacitinib 200 mg or 300 mg QD with corticosteroids; day 28 vs baseline. It is filed as in vivo, human. In a few lines:
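Longitudinal comparison, day 28 versus baseline, with steroid-naive (N=10) and steroid-refractory (N=18) patients combined. Proteins measured by OLINK proximity extension, log2 normalized protein expression. Differences tested by t tests, ANOVA, Pearson correlation, P<0.05 significant.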
With B1, the “Fold Change, Decreased Expression from Baseline to Day 28” value (“Fold Change, Decreased Expression” below) is −1.1356. B2: the “Fold Change, Decreased Expression” value is on record as −1.1904. As to B3, the “Fold Change, Increased Expression from Baseline to Day 28” value was determined as 1.095. For B4, the “Fold Change, Decreased Expression” value is −1.274. On the same count and under the same terms, the result for B5 reads −1.3651. As to B6, the “Fold Change, Decreased Expression” value was −1.1901. In the case of B7, the “Fold Change, Decreased Expression” value is −1.2979.

Turning to B8, the “Fold Change, Decreased Expression” value is −1.6181. As for B9, the “Fold Change, Decreased Expression” value was −1.232.

The values are drawn from patent publication US12099068B2, “Biomarkers for graft-versus-host disease” (Incyte Corporation, priority 2018, dated 2024).
